Laboratory results reported in patent publication US20240279344A1 (CDR LIFE, published 2024).
Positions count from the first letter of the chain named.

B1: M0739 (VHH)
VHH: EVQLVESGGGSVQPGGSLRLSCAASGFTFSRSTMSWVRQAPGKGLEWVSSISGSGGVTTYTTSVKGRFTISRDNAKNLMYLQMNSLNPEDTAVYYCANGDNRGPGTQVTVSS
notes: Llama-derived VHH; detected with anti-VHH (ELISA) or anti-Flag (flow)
B2: M0747 (VHH)
VHH: EVQLVESGGGLAQAGGSLRVSCVASGRPFTKYAWGWFRQAPGKAREFVATITWDGGKTDYADSVKGRFTISKDSAENSIYLQMNSLKPEDTAVYYCAADRNYCVGHRCYVRPDDYDYWGQGTQVTVSS
notes: as for B1
B3: M0742 (VHH)
VHH: EVQLVESGGGLVQPRGSLRLSCAASGFTFSNSGMSWVRQAPGKGLEWVSSISSGGSSTTYLDSVKGRFTISRDNAKNTLYLQMNSLKPEDTAVYYCSWADLRGRGTQVTVSS
notes: as for B1
B4: M0763 (Fab, V domains shown)
VH: QSVKESGGRLVTPGTPLTLTCTVSGFSLSNYAMSWVRQAPGKGLEYIGIVSSGGTTYYASWAKGRFTISKTSTTVDLKITSPTTEDTATYFCAKDLYYGPTTYSAFNLWGQGTLVTVSS
VL: SELVLTQPASVQVNLGQTVSLTCTADTLSRSYASWYQLKPGQAPVLLIYRDTSRPSGVPDRFSGSSSGNTATLTISGAQAGDEGDYVCATSDGSGSNFQLFGGGTQLTVTG
notes: also called M763; parental M0763 antibody
B5: M0743 (VHH)
VHH: EVQLVESGGGLVQPGGSLRLSCVASGFTFSWYTMNWVRQAPGKGFEWVASIGSGGTPTTYRESVKGRFTISRDNAKSTLYLQMNSLKPEDTAVYHCENGQARGQGTQVTVSS
notes: as for B1
B6: M1335 (antibody, V domains shown)
VH: EVQLLESGGGSVQPGGSLRLSCTVSGFSLSNYAMSWVRQAPGKGLEWIGIVSSGGTTYYADSVKGRFTISKDTSKNTVYLQMNSLRAEDTASYYCAKDLYYGPSTYFVANLWGQGTSVTVSS
VL: SYELTQPPSVSVSPGQTASITCTADTLSRSYASWYQQKPGQSPVLVIYRDTSRPSGIPERFSGSNSGNTATLTISGTQAMDEADYYCATRPSSGSNFQLFGGGTKLTVL
notes: Variant with the HCDR2 motif SWA replaced by DSV
B7: M1342 (antibody, V domains shown)
VH: EVQLLESGGGSVQPGGSLRLSCTVSGFSLSNYAMSWVRQAPGKGLEWIGIVSSGGTTYYADSVKGRFTISKDTSKNTVYLQMNSLRAEDTASYYCAKDLYYGPNTDYSAANLWGQGTSVTVSS
VL: B6 VL with L99A
notes: as for B6

These binders were tested against T1, HLA-A2/MAGE-A4 complex, recombinant (HLA-A*02:01 extracellular domain, human b2m, MAGE-A4 peptide 230-239 …) (human, UniProt P04439 25-299 at identity 0.94); P61769 21-119) (assay: direct ELISA, plate coated with HLA-A2/MAGE-A4 complex, serial dilution of the antibody).
T1 construct: also called MAGE-A4 pMHC; MAGE-A4/HLA-A2 complex
Method: All available hits were evaluated for their ability to bind MAGE-A4/HLA-A2 complex and a control peptide/HLA-A2 complex in a direct binding ELISA assay. […] Briefly, 96 well ELISA plates were coated with purified human MAGE-A4/HLA-A2 complex or control HLA-A2 complex. Serial dilutions of antibody molecules were added to the plate and detected by an anti-kappa light chain-HRP (Invitrogen) or a purified rabbit anti-VHH (QVQ) followed by goat anti-rabbit IgG(H+L) HRP (Southern Biotech). […] 5B.

Binder | binding result | EC50 (read off the curve) [µg/mL]
B1 | binds | –
B2 | binds | –
B3 | – | ~0.02
B4 | – | ~1
B5 | – | ~0.003

Each binder was assayed against T2, control peptide 3 (…) displayed by HLA-A2 on T2 cells (human) (assay: flow cytometry on peptide-pulsed T2 cells, relative MFI (binding over peptide loading)).
T2 construct: whole, on cells; also called Ctrl.3
Method: (§1) TAP-deficient T2 cells were pulsed with HLA-A2-restricted peptides (MAGE-A4 or control peptides) and incubated with MAGE-A4 binders followed by fluorophore-labeled specific detection antibodies and analysis by flow cytometry.
(§2) Briefly, T-B hybrid T2 cells were incubated with serum-free RPMI1640 medium containing MAGE-A4 or control peptides. […] Peptide loading efficiency was verified by using the ratio between median fluorescent intensity (MFI) of HLA-A2-binding antibody BB7.2 on peptide loaded T2 cells and MFI of unloaded T2 cells (>1). T2 cells were incubated with each of the specific antibodies followed by fluorophore-labeled detection antibodies (anti-kappa light chain or anti-Flag). The cells were fixed and fluorescence was measured by flow cytometry.

Binder | binding result
B2 | no binding
B4 | no binding
B5 | no binding

What follows are binders tested against T3, control peptide 1 (…) displayed by HLA-A2 on T2 cells (human) in the same assay as above.
T3 construct: whole, on cells; also called Ctrl.1
Method: as §1, §2

Binder | binding result
B1 | no binding
B2 | no binding
B3 | no binding
B4 | no binding
B5 | no binding

What follows are binders tested against T4, control peptide 2 (…) displayed by HLA-A2 on T2 cells (human) in the same assay as above.
T4 construct: whole, on cells; also called Ctrl.2
Method: as §1, §2

Binder | binding result
B1 | binds
B2 | no binding
B3 | binds
B4 | no binding
B5 | no binding

What follows are binders tested against T1, HLA-A2/MAGE-A4 complex, recombinant … (assay: SPR).

Binder | binding result
B6 | binds
B7 | binds
